Reference: PMC9785345

What was measured:
[1] = target: recombinant SARS-CoV-2 spike receptor-binding domain (rRBD), Wuhan-Hu-1 isolate, residues 319-541 wi (SARS-CoV-2) (UniProt P0DTC2); assay: SEC
[2] = target: recombinant SARS-CoV-2 spike receptor-binding domain (rRBD), Wuhan-Hu-1 isolate, residues 319-541 wi (SARS-CoV-2) (UniProt P0DTC2); assay: non-reducing SDS-PAGE
[3] = target: recombinant SARS-CoV-2 spike receptor-binding domain (rRBD), Wuhan-Hu-1 isolate, residues 319-541 wi (SARS-CoV-2) (UniProt P0DTC2); assay: non-reducing SDS-PAGE with western blot

“recombinant SARS-CoV-2 spike receptor-binding domain (rRBD), Wuhan-Hu-1 isolate, residues 319-541 wi (from UniProt P0DTC2 319-541) (domain or fragment)” was tested, and the stoichiometry N [1] was 2, the stoichiometry N [2] was 2 and the percent dimer of total rRBD (4 dpi) [3] was 17.9%. It also gave a stoichiometry N [3] of 2.
